From PMC3685215

Biological target: recombinant type 1 inositol 1,4,5-trisphosphate receptor, N-terminally tagged with ECFP (rat) (UniProt P29994)
Assay: SEC; Calibrated Superose 6 10/300 GL gel filtration, the final purification step; 50 mM Tris/HCl, 150 mM NaCl, 1 mM EDTA, 1 mM dithiothreitol, 5% glycerol, 0.02% DDM, pH 8.3; 4 °C; oligomeric size of the purified receptor

stoichiometry N: 4
Substance: recombinant type 1 inositol 1,4,5-trisphosphate receptor, N-terminally tagged with ECFP (from UniProt P29994 1-2750)
